Consider 1 protein from publication PMC11577753, “Identification and characterization of a novel formaldehyde dehydrogenase in Bacillus subtilis” (Applied and Environmental Microbiology, 2024).

Substrate in the series: C=O
As to the kind of experiment: purified protein. The format is biochemical, Bacillus subtilis. The conditions noted are these: 10 mM NAD+, 50 mM BISTRIS propane pH 9.0, 25 mM NaCl, 37 °C (Fig 6 legend; methods say 40 °C).

B1: YycR (Bacillus subtilis subsp. subtilis str. 168) (protein)
chain: MGGMALTGNKAVVYKGKGTVAVEDIGYPELILRDGPGVPKANVNRKCEHGVILKVITTNICGSDQHMVRGRTTAPEGLVLGHEITGEVIETGRDVEFIKKGDIVSVPFNIACGRCVMCKTQKTHVCLNVNPDRPGSAYGYVDMGGWVGGQSEYVMVPYADFQLLVFPDKEQALEKILDLTMLSDIFPTGFHGAYTAGVQTGSTVYIAGAGPVGLAAAHSAQLLGASTVIVGDLNEDRLAQARSFGCETVNVQKHDRLGEQIEQILGEPTVDAAVDCVGFEASGHGNQGEAPAAVLNSIMDVTQVGGSLGIPGLYVTEDPGAKDADAKTGSLKIRFGLGWAKAHTFVTGQTPAMTYNRNLMKAILSGRAQIAKAVNATVISLDDAPKGYSDFDKGAAKKFVIDPHGTLK
notes: full-length, C-terminal His tag (pNIC-CH) kept, E. coli T7 Express, HisTrap purified, 44 kDa; zinc-type, metal as purified
For orientation: Km means the substrate concentration at which the rate is half of its maximum. In general, kcat refers to the maximal rate divided by the concentration of active sites. On to B1, for which the Km was determined as 190 ± 50 µM and the kcat stood at 0.52 s⁻¹.
